US20240092919A1 (Ablynx, published 2024)
Blank lines part the entries; values can stand above or below the binder they belong to.

Assays:
[1] = target: T1, Cynomolgus TCR(AEA41865/AEA41866)-zipper protein (cynomolgus monkey); assay: SPR, ProteOn XPR36, 25 C, immobilised TCR-zipper
T1 construct: also called cyTCR-zipper protein; cynoTCR zipper
From the text: HuTCR-zipper or cyTCR-zipper protein was immobilized on a GLC sensor chip (between 100-200 RU) via amine coupling chemistry, using EDC/NHS for activation of the carboxyl groups on the chip surface (running buffer: HBS-EP+, pH7.4). […] Processed sensorgrams were fitted with the Langmuir model (1:1 interaction) using ProteOn Manager 3.1.0 (Version 3.1.0.6) software.
T1 TCR alpha: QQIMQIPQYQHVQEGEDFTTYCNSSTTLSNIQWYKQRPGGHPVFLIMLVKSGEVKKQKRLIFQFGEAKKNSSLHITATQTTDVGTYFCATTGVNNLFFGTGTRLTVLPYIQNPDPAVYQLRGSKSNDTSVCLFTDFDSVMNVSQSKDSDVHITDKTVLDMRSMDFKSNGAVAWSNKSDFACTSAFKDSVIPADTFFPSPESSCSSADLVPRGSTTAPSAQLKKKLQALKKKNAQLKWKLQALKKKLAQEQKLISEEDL
T1 TCR beta: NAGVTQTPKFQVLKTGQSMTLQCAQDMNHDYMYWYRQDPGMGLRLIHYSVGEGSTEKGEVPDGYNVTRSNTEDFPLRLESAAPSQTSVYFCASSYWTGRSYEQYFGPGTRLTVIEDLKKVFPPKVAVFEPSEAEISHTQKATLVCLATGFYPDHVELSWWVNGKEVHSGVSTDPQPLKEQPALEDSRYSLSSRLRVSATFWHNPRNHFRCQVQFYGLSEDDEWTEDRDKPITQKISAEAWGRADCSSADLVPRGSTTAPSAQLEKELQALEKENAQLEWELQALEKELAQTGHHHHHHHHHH

[2] = target: T2, Human T cell receptor on human primary T cells (human, UniProt P01848 1-140; P01850 1-176); assay: cell-based or functional assay
T2 TCR alpha (looked up): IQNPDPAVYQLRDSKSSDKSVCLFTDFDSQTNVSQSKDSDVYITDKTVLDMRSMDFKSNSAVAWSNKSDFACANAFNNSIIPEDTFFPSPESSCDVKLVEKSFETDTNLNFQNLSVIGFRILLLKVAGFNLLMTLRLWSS
T2 TCR beta (looked up): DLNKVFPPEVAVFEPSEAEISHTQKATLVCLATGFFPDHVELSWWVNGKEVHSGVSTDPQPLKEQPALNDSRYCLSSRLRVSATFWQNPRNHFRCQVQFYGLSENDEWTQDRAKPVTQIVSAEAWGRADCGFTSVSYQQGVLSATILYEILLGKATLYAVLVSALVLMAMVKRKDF

[3] = target: Cynomolgus T cell receptor on cynomolgus primary T cells (cynomolgus monkey); assay: cell-based or functional assay; on % Lysis, T cell mediated MOLM-13 cell killing, cynomolgus primary T cells, E:T 10:1: test concentration or dose not given here
[4] = target: T3, Cynomolgus TCR(AEA41865/AEA41866)-zipper protein (cynomolgus monkey); assay: SPR ProteOn off-rate screen
T3 construct: also called cyTCR-zipper protein; cynoTCR zipper
From the text: Unique ISVD clones, i.e. clones with a unique sequence, were subsequently selected and screened to determine their off-rate. To this purpose, the ISVD containing periplasmic extracts were screened on huTCR-zipper and cyTCR-zipper protein by SPR on a ProteOn XPR36 instrument. The zipper proteins were immobilized on a GLC sensor chip (between 4300 and 5100RU) via amine coupling chemistry, using EDC/sulfo-NHS for activation of the carboxyl groups on the chip surface (running buffer: HBS-EP+, pH7.4). Periplasmic extracts were injected at 1/10 dilution for 2 min (at a flow rate of 45 μL/min) and dissociation was followed for 900 s. A pulse of 100 s of 3 M MgCl2 at 45 μL/min was used for regeneration. […] Processed sensorgrams were fitted with the Langmuir model (1:1 interaction) using ProteOn Manager 3.1.0 (Version 3.1.0.6) software.
T3 TCR alpha: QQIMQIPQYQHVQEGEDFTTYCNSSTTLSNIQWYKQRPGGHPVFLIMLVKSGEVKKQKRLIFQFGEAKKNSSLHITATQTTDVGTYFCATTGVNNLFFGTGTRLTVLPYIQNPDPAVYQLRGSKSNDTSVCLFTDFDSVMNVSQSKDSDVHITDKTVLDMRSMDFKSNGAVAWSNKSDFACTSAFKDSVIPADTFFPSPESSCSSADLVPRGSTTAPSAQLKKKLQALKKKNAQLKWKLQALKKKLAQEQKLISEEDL
T3 TCR beta: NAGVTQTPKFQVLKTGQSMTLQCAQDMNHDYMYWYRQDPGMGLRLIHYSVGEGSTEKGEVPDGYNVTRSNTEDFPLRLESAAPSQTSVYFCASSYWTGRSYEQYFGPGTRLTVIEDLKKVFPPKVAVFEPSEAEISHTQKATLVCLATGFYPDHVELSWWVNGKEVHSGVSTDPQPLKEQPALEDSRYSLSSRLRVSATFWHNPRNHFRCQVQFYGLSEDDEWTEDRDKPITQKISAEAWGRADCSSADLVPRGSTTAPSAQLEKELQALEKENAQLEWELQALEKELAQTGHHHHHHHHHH

[5] = target: T2, Human T cell receptor on human primary …; assay: flow cytometry, human primary T cells
Wherever % Lysis, T cell mediated MOLM-13 cell killing, human primary T cells, E:T 10:1 is given: test concentration or dose not given here.

- Kd [1]: 240 nM
B1: T017000630 (bispecific antibody)
chain: DVQLVESGGGLVQAGGSLRLSCAASGITSKINDMGWYRQTPGNYREWVASITATGTTNYRDSVKGRFTISRDNAKSTVYLQMNSLKPEDTTVYYCNTFPPISNFWGQGTLVTVSSGGGGSGGGGSGGGGSGGGGSGGGGSGGGGSGGGGSEVQLVESGGGVVQPGGSLRLSCVASWDVHKINFYGWYRQAPGKEREKVAHISIGDQTDYADSAKGRFTISRDESKNTVYLQMNSLRPEDTALYYCRALSKIWPYDYWGQGTLVTVSSA
notes: also called A0110056A10(E1D)-35GS-T0170056G05(L11V, G26W, L34Y, M77T, K83R, V89L, F91Y, F95L, R97K, Y99W)-A
- % Lysis, T cell mediated MOLM-13 cell killing, human primary T cells, E:T 10:1 [2]: 0%
- EC50 (M), T cell mediated MOLM-13 cell killing, cynomolgus primary T cells, E:T 10:1 [3]: 4.5e-10 M

- Kd [1]: 15000 nM
B2: T017000640 (bispecific antibody)
chain: DVQLVESGGGLVQAGGSLRLSCAASGITSKINDMGWYRQTPGNYREWVASITATGTTNYRDSVKGRFTISRDNAKSTVYLQMNSLKPEDTTVYYCNTFPPISNFWGQGTLVTVSSGGGGSGGGGSGGGGSGGGGSGGGGSGGGGSGGGGSEVQLVESGGGVVQPGGSLRLSCVASWDVHKINFYTWYRQAPGKEREKVAHISIGDQTDYADSAKGRFTISRDESKNTVYLQMNSLRPEDTALYYCRALSRIWPYDYWGQGTLVTVSSA
notes: also called A0110056A10(E1D)-35GS-T0170056G05(L11V, G26W, L34Y, G35T, M77T, K83R, V89L, F91Y, F95L, Y99W)-A
- % Lysis, T cell mediated MOLM-13 cell killing, human primary T cells, E:T 10:1 [2]: 37%
- EC50 (M), T cell mediated MOLM-13 cell killing, human primary T cells, E:T 10:1 [2]: 5.7e-10 M
- % Lysis, T cell mediated MOLM-13 cell killing, cynomolgus primary T cells, E:T 10:1 [3]: 6%

- Kd [1]: 900 nM
B3: T017000643 (bispecific antibody)
chain: DVQLVESGGGLVQAGGSLRLSCAASGITSKINDMGWYRQTPGNYREWVASITATGTTNYRDSVKGRFTISRDNAKSTVYLQMNSLKPEDTTVYYCNTFPPISNFWGQGTLVTVSSGGGGSGGGGSGGGGSGGGGSGGGGSGGGGSGGGGSEVQLVESGGGVVQPGGSLRLSCVASWDVHKINFYTWYRQAPGKEREKVAHISIGDQTDYADSAKGRFTISRDESKNTVYLQMNSLRPEDTALYYCRALSKIWPYDYWGQGTLVTVSSA
notes: also called A0110056A10(E1D)-35GS-T0170056G05(L11V, G26W, L34Y, G35T, M77T, K83R, V89L, F91Y, F95L, R97K, Y99W)-A
- % Lysis, T cell mediated MOLM-13 cell killing, human primary T cells, E:T 10:1 [2]: 0%
- % Lysis, T cell mediated MOLM-13 cell killing, cynomolgus primary T cells, E:T 10:1 [3]: 12%
- EC50 (M), T cell mediated MOLM-13 cell killing, cynomolgus primary T cells, E:T 10:1 [3]: 1.6e-10 M

- Kd [1]: 290 nM
B4: T017000631 (bispecific antibody)
chain: DVQLVESGGGLVQAGGSLRLSCAASGITSKINDMGWYRQTPGNYREWVASITATGTTNYRDSVKGRFTISRDNAKSTVYLQMNSLKPEDTTVYYCNTFPPISNFWGQGTLVTVSSGGGGSGGGGSGGGGSGGGGSGGGGSGGGGSGGGGSEVQLVESGGGVVQPGGSLRLSCVASYDVHKINFYGWYRQAPGKEREKVAHISIGDQTDYADSAKGRFTISRDESKNTVYLQMNSLRPEDTALYYCRALSKIWPYDYWGQGTLVTVSSA
notes: also called A0110056A10(E1D)-35GS-T0170056G05(L11V, G26Y, L34Y, M77T, K83R, V89L, F91Y, F95L, R97K, Y99W)-A
- % Lysis, T cell mediated MOLM-13 cell killing, human primary T cells, E:T 10:1 [2]: 0%
- % Lysis, T cell mediated MOLM-13 cell killing, cynomolgus primary T cells, E:T 10:1 [3]: 35%
- EC50 (M), T cell mediated MOLM-13 cell killing, cynomolgus primary T cells, E:T 10:1 [3]: 2e-10 M

- koff [4]: 0.0162 s⁻¹
B5: T017000278 (VHH)
VHH: EVQLVESGGGVVQPGGSLRLSCVASGDVHKINFLGWYRQAPGKEREKVAHISIGDQTDYADSAKGRFTISRDESKNMVYLQMNSLRPEDTALYFCRAFSRIYPYSYWGQGTLVTVSS

- koff [4]: 0.00171 s⁻¹
B6: T017000290 (VHH)
VHH: EVQLVESGGGVVQPGGSLRLSCVASGDVHKINFLGWYRQAPGKEREKVAHISIGDQTDYADSAKGRFTISRDESKNMVYLQMNSLRPEDTALYFCRAFSKIYPYDYWGQGTLVTVSS

- koff [4]: 0.00559 s⁻¹
B7: T017000283 (VHH)
VHH: EVQLVESGGGVVQPGGSLRLSCVASGDVHKINFLGWYRQAPGKEREKVAHISIGDQTDYADSAKGRFTISRDESKNMVYLQMNSLRPEDTALYFCRAFSSIYPYDYWGQGTLVTVSS

- EC50 [5]: 66 nM
B8: T017000690 (VHH, not shown: small tags and cut ends)
VHH: EVQLVESGGGVVQPGGSLRLSCVASWEVHKINFYGWYRQAPGKEREKVAHISIGDQTDYADSAKGRFTISRDESKNTVYLQMNSLRPEDTALYYCRALSRIWPYDYWGQGTLVTVSS

- EC50 [5]: 55 nM
B9: T017000686 (VHH, not shown: small tags and cut ends)
VHH: EVQLVESGGGVVQPGGSLRLSCVASGSVHKINFYGWYRQAPGKEREKVAHISIGDQTDYADSAKGRFTISRDESKNTVYLQMNSLRPEDTALYYCRALSRIWPYDYWGQGTLVTVSS

- koff [4]: 0.0148 s⁻¹
B10: T017000302 (VHH)
VHH: EVQLVESGGGVVQPGGSLRLSCVASGDVHKINFLGWYRQAPGKEREKVAHISIGDQTDYADSAKGRFTISRDESKNMVYLQMNSLRPEDTALYFCRAFSRIYPYTYWGQGTLVTVSS

- koff [4]: 0.0121 s⁻¹
B11: T017000287 (VHH)
VHH: EVQLVESGGGVVQPGGSLRLSCVASGDVHKINFLGWYRQAPGKEREKVAHISIGDQTDYADSAKGRFTISRDESKNMVYLQMNSLRPEDTALYFCRAFSRIYPYQYWGQGTLVTVSS

- koff [4]: 0.0178 s⁻¹
B12: T017000301 (VHH)
VHH: EVQLVESGGGVVQPGGSLRLSCVASGDVHKINFLGWYRQAPGKEREKVAHISIGDQTDYADSAKGRFTISRDESKNMVYLQMNSLRPEDTALYFCRAFSRIYPYAYWGQGTLVTVSS

- EC50 [5]: 58 nM
B13: T017000682 (VHH, not shown: small tags and cut ends)
VHH: EVQLVESGGGVVQPGGSLRLSCVASGAVHKINFYGWYRQAPGKEREKVAHISIGDQTDYADSAKGRFTISRDESKNTVYLQMNSLRPEDTALYYCRALSRIWPYDYWGQGTLVTVSS

- koff [4]: 0.0151 s⁻¹
B14: T017000294 (VHH)
VHH: EVQLVESGGGVVQPGGSLRLSCVASGDVHKINFLGWYRQAPGKEREKVAHISIGDQTDYADSAKGRFTISRDESKNMVYLQMNSLRPEDTALYFCRAFSRIYPYDWWGQGTLVTVSS

- koff [4]: 0.00555 s⁻¹
B15: T017000281 (VHH)
VHH: EVQLVESGGGVVQPGGSLRLSCVASGDVHKINFLGWYRQAPGKEREKVAHISIGDQTDYADSAKGRFTISRDESKNMVYLQMNSLRPEDTALYFCRAMSRIYPYDYWGQGTLVTVSS

- koff [4]: 0.0216 s⁻¹
B16: T017000285 (VHH)
VHH: EVQLVESGGGVVQPGGSLRLSCVASGDVHKINFLGWYRQAPGKEREKVAHISIGDQTDYADSAKGRFTISRDESKNMVYLQMNSLRPEDTALYFCRAFSRIYPYLYWGQGTLVTVSS

- koff [4]: 0.0087 s⁻¹
B17: T017000312 (VHH)
VHH: EVQLVESGGGVVQPGGSLRLSCVASGDVHKINFLGWYRQAPGKEREKVAHISIGDQTDYADSAKGRFTISRDESKNMVYLQMNSLRPEDTALYFCRALSRIYPYDYWGQGTLVTVSS

- koff [4]: 0.00672 s⁻¹
B18: T017000291 (VHH)
VHH: EVQLVESGGGVVQPGGSLRLSCVASGDVHKINFLGWYRQAPGKEREKVAHISIGDQTDYADSAKGRFTISRDESKNMVYLQMNSLRPEDTALYFCRAFSRIWPYDYWGQGTLVTVSS
